Reference: publication doi:10.1101/2022.10.08.511438
Values belong to the substance of their own block, whether it stands above or below them.

Tests used:
[1] = molecular target: dihydrolipoyl succinyltransferase (E2o), core of the oxoglutarate dehydrogenase complex, Chaetomium thermophilum (C. thermophilum (endogenous in mycelium lysate)); test: label-free MS quantitation
[2] = molecular target: dihydrolipoyl succinyltransferase (E2o), core of the oxoglutarate dehydrogenase complex, Chaetomium thermophilum (C. thermophilum (endogenous in mycelium lysate)); test: cryo-EM structure

stoichiometry N (E1o dimers around the 24-mer E2o core) [1]: 9 | stoichiometry N (E1o dimers relative to 24 E2o subunits) [1]: < 10
Substance: oxoglutarate dehydrogenase (E1o) of the oxoglutarate dehydrogenase complex (OGDHc), Chaetomium thermophilum (enzyme)

stoichiometry N [2]: 24 subunits
Substance: dihydrolipoyl succinyltransferase (E2o), core of the oxoglutarate dehydrogenase complex, Chaetomium thermophilum (enzyme)

stoichiometry N (E3 dimers relative to 24 E2o subunits) [1]: 4
Substance: dihydrolipoyl dehydrogenase (E3), Chaetomium thermophilum (enzyme)
